Starred links: 1 amine or outer side, 2 acyl side, 3 side chain; linkers in the order of their positions; H or OH if unused. Positions of bridges follow the written chain, without caps; N, C: chain ends. Non-standard residues stand in square brackets, D forms with d. Chains are numbered I, II in the order given. No end group written: not given here. *: point of attachment. TATA = O=C(CC[*:1])N1CN(C(=O)CC[*:2])CN(C(=O)CC[*:3])C1; Dip = N[C@H](C(=O)O)C(c1ccccc1)c1ccccc1; d1Nal = N[C@H](Cc1cccc2ccccc12)C(=O)O; Hyp = O=C(O)[C@@H]1C[C@@H](O)CN1; hArg = N=C(N)NCCCC[C@H](N)C(=O)O; tBuAla = CC(C)(C)C[C@H](N)C(=O)O; Cba = N[C@@H](CC1CCC1)C(=O)O; dK(PYA) = not defined here; NMeA = CN[C@@H](C)C(=O)O; Nle = CCCC[C@H](N)C(=O)O; Pent4ynoyl = C#CCCC(=O)*; Mpa = O=C(O)CCS

This assay addresses CD137 on Jurkat reporter cells (Promega kit CS196005) (UniProt Q07011). Description: cell-based or functional assay.

CD137 on Jurkat reporter cells (Promega kit CS196005), sequence (Q07011 24-255 limits assumed): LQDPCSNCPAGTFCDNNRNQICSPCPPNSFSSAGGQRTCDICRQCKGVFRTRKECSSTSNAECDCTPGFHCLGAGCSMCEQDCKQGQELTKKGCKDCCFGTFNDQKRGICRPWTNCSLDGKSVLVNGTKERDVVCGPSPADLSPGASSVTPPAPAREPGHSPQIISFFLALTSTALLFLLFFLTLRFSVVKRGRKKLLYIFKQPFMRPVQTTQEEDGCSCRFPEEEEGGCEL

B1: BCY12973 (peptide)
peptide 1: Ac-A[hArg]DC[Hyp]LVNPLCLHP[dD]W[hArg]CK
peptide 2: Ac-C[tBuAla]PE[dK(PYA)]PYCFADPY[Nle]CA
modifications: linker I:4-I:11-I:18, II:1-II:8-II:15 via TATA; linker I:19-II:5 via N‑(acid-PEG3)‑N‑bis(PEG3-azide); reading uncertain; also: two CD137 bicycles per complex (EphA2:CD137 1:2)
B1: the EC50 (nM), PC3 co-culture amounted to 0.16 nM and the Emax (fold induction over background), PC3 (fold over background) amounted to 48.6.

B2: BCY13138 (peptide)
peptide 1: A[hArg]DC[Hyp]LVNPLCLEP[dD]WTC
peptide 2: [Mpa][tBuAla]PE[dK(PYA)]PYCFADPY[Nle]C
modifications: linker I:4-I:11-I:18, II:1-II:8-II:15 via TATA (inferred); not fully specified (N-terminus); reading uncertain; also: linker joins chain 1 to two chain 2 copies via PYA triazoles
Molecule B2 had an EC50 (nM), PC3 co-culture of 0.17 nM and an Emax (fold induction over background), PC3 (fold over background) of 32.6.

B3: BCY12976 (peptide)
peptide 1: Ac-A[hArg]DC[Hyp]LVNPLCKHP[dD]W[hArg]C
peptide 2: Ac-C[tBuAla]PE[dK(PYA)]PYCFADPY[Nle]CA
modifications: linker I:4-I:11-I:18, II:1-II:8-II:15 via TATA; linker I:12-II:5 via N‑(acid-PEG3)‑N‑bis(PEG3-azide); reading uncertain; also: two CD137 bicycles per complex (EphA2:CD137 1:2)
Molecule B3 returned an EC50 (nM), PC3 co-culture of 0.18 nM and an Emax (fold induction over background), PC3 (fold over background) of 73.2.

B4: BCY14335 (peptide)
peptide 1: {Palmitoyl‑Glu‑LysN3-Pent4ynoyl}-A[hArg]DC[Hyp]LVNPLCLKP[dD]W[hArg]C
peptide 2: Ac-C[tBuAla]PE[dK](Pent4ynoyl)PYCFADPY[Nle]CA
modifications: linker I:4-I:11-I:18, II:1-II:8-II:15 via TATA (inferred); not fully specified; also: 1:2 complex: chain 1 Lys ('Lys 8') joined to dLys(PYA)5 of two chain 2 copies via N-(acid-PEG3)-N-bis(PEG3-azide) linker
In turn, B4 had a Fold Improvement over BCY9173, EC50, PC3 of 7.14 fold and a Fold Improvement over Emax (BCY9173), PC3 of 0.94 fold.

B5: BCY13139 (peptide)
peptide 1: A[hArg]DC[Hyp]LVNPLCLHP[dD]W[hArg]C
peptide 2: [Mpa][tBuAla]EE[dK](Pent4ynoyl)PYCFADPY[Nle]C
modifications: linker I:4-I:11-I:18, II:1-II:8-II:15 via TATA; not fully specified (N-terminus); also: linker joins chain 1 to two chain 2 copies via PYA triazoles
On to B5, for which the EC50 (nM), PC3 co-culture was 0.16 nM and the Emax (fold induction over background), PC3 (fold over background) was found to be 43.8.

B6: BCY13270 (peptide)
peptide 1: A[hArg]DC[Hyp]LVNPLCLHP[d1Nal]W[hArg]C
peptide 2: Ac-C[tBuAla]PE[dK](Pent4ynoyl)PYCFADPY[Nle]CA
modifications: linker I:4-I:11-I:18, II:1-II:8-II:15 via TATA; not fully specified (N-terminus, bridges); also: linker joins chain 1 to two chain 2 copies via PYA triazoles
B6: the EC50 (nM), PC3 co-culture came out at 0.1 nM and the Emax (fold induction over background), PC3 (fold over background) stood at 42.5.

B7: BCY12977 (peptide)
peptide 1: A[hArg]DC[Hyp]LVNPLCLHP[dE]W[hArg]C
peptide 2: Ac-C[tBuAla]PE[dK(PYA)]PYCFADPY[Nle]CA
modifications: linker I:4-I:11-I:18, II:1-II:8-II:15 via TATA; linker II:N-II:5 via N‑(acid-PEG3)‑N‑bis(PEG3-azide); reading uncertain; also: two CD137 bicycles per complex (EphA2:CD137 1:2)
B7 returned an EC50 (nM), PC3 co-culture of 0.08 nM and an Emax (fold induction over background), PC3 (fold over background) of 67.2.

B8: BCY13050 (peptide)
peptide 1: A[hArg]DC[Hyp][Cba]VNPLCLHP[dD]W[hArg]C
peptide 2: Ac-C[tBuAla]PE[dK](Pent4ynoyl)PYCFADPY[Nle]CA
modifications: linker I:4-I:11-I:18, II:1-II:8-II:15 via TATA; not fully specified (N-terminus, bridges); also: linker joins chain 1 to two chain 2 copies via PYA triazoles
Consider B8, for which the EC50 (nM), PC3 co-culture was found to be 0.09 nM and the Emax (fold induction over background), PC3 (fold over background) stood at 42.5.

B9: BCY13140 (peptide)
peptide 1: A[hArg]DC[Hyp]LVNPLCLEP[dD]WTC
peptide 2: [Mpa][tBuAla]EE[dK](Pent4ynoyl)PYCFADPY[Nle]C
modifications: linker I:4-I:11-I:18, II:1-II:8-II:15 via TATA; not fully specified (N-terminus); also: linker joins chain 1 to two chain 2 copies via PYA triazoles
The molecule B9 showed an EC50 (nM), PC3 co-culture of 0.12 nM and an Emax (fold induction over background), PC3 (fold over background) of 46.7.

B10: BCY13052 (peptide)
peptide 1: [dA][hArg]DC[Hyp][Cba]VNPLCLEP[dD]WTC[dA]
peptide 2: Ac-C[tBuAla]PE[dK](Pent4ynoyl)PYCFADPY[Nle]CA
modifications: linker I:4-I:11-I:18, II:1-II:8-II:15 via TATA (inferred); not fully specified (N-terminus); also: chain 2: linker at dLys(PYA)4 (place not given here by letters), linker N-(acid-PEG3)-N-bis(PEG3-azide) joins N-terminus of chain 1 to dLys(PYA) of chain 2
The molecule B10 displayed an EC50 (nM), PC3 co-culture of 0.21 nM and an Emax (fold induction over background), PC3 (fold over background) of 32.9.

B11: BCY12975 (peptide)
peptide 1: Ac-A[hArg]DC[Hyp]KVNPLCLHP[dD]W[hArg]C
peptide 2: Ac-C[tBuAla]PE[dK(PYA)]PYCFADPY[Nle]CA
modifications: linker I:4-I:11-I:18, II:1-II:8-II:15 via TATA; linker I:6-II:5 via N‑(acid-PEG3)‑N‑bis(PEG3-azide); reading uncertain; also: two CD137 bicycles per complex (EphA2:CD137 1:2)
Regarding B11, the EC50 (nM), PC3 co-culture turned out to be 0.16 nM and the Emax (fold induction over background), PC3 (fold over background) is 68.8.

B12: BCY13051 (peptide)
peptide 1: A[hArg]DC[Hyp][Cba]VNPLCLEP[dD]WTC
peptide 2: Ac-C[tBuAla]PE[dK](Pent4ynoyl)PYCFADPY[Nle]CA
modifications: linker I:4-I:11-I:18, II:1-II:8-II:15 via TATA; not fully specified (N-terminus, bridges); also: linker joins chain 1 to two chain 2 copies via PYA triazoles
In the case of B12, the EC50 (nM), PC3 co-culture was 0.21 nM and the Emax (fold induction over background), PC3 (fold over background) was found to be 37.

B13: BCY13054 (peptide)
peptide 1: A[hArg]DC[Hyp]LVNPLCL[Dip]P[dD]W[hArg]C
peptide 2: Ac-C[tBuAla]PE[dK](Pent4ynoyl)PYCFADPY[Nle]CA
modifications: linker I:4-I:11-I:18, II:1-II:8-II:15 via TATA; not fully specified (N-terminus, bridges); also: linker joins chain 1 to two chain 2 copies via PYA triazoles
For B13, the EC50 (nM), PC3 co-culture was 0.07 nM and the Emax (fold induction over background), PC3 (fold over background) came to 36.5.

B14: BCY14334 (peptide)
peptide 1: A[hArg]DC[Hyp]LVNPLCLKP[dD]W[hArg]C
peptide 2: Ac-C[tBuAla]PE[dK](Pent4ynoyl)PYCFADPY[Nle]CA
modifications: linker I:4-I:11-I:18 via TATA; linker II:1-II:8-II:15 via TATA (inferred); not fully specified (some residues); also: N-(acid-PEG3)-N-bis(PEG3-azide) linker at chain 1 N-terminus, joined to dLys(PYA)4 of two BCY8928 chains (1:2 complex)
For the molecule B14, the Fold Improvement over BCY9173, EC50, PC3 amounted to 7.21 fold and the Fold Improvement over Emax (BCY9173), PC3 is 1.62 fold.

B15: BCY12979 (peptide)
peptide 1: A[hArg]DC[Hyp]LVNPLCLHP[dD]W[hArg]C
peptide 2: Ac-C[tBuAla]PE[dK(PYA)]PYCFADPY[Nle]CA
modifications: linker I:4-I:11-I:18, II:1-II:8-II:15 via TATA; not fully specified (bridges); reading uncertain; also: two CD137 bicycles per complex (EphA2:CD137 1:2)
In turn, B15 gave an EC50 (nM), PC3 co-culture of 0.08 nM and an Emax (fold induction over background), PC3 (fold over background) of 71.6.

B16: BCY13047 (peptide)
peptide 1: A[hArg]DC[Hyp]LVNPLCL[Dip]P[dD]WTC
peptide 2: Ac-C[tBuAla]PE[dK(PYA)]PYCFADPY[Nle]CA
modifications: linker I:4-I:11-I:18, II:1-II:8-II:15 via TATA; not fully specified (N-terminus, bridges); reading uncertain; also: two CD137 bicycles per complex (EphA2:CD137 1:2)
Regarding B16, the EC50 (nM), PC3 co-culture amounted to 0.07 nM and the Emax (fold induction over background), PC3 (fold over background) is 46.4.

B17: BCY13275 (peptide)
peptide 1: [NMeA][hArg]DC[Hyp]LVNPLCLHP[dD]W[hArg]C
peptide 2: Ac-C[tBuAla]PE[dK](Pent4ynoyl)PYCFADPY[Nle]CA
modifications: linker I:4-I:11-I:18, II:1-II:8-II:15 via TATA; not fully specified (N-terminus, bridges); also: linker joins chain 1 to two chain 2 copies via PYA triazoles
As for B17, the EC50 (nM), PC3 co-culture is 0.08 nM and the Emax (fold induction over background), PC3 (fold over background) came out at 47.5.

Values taken from patent US20230129258A1, “HETEROTANDEM BICYCLIC PEPTIDE COMPLEXES” (BicycleTx Limited, priority 2019, published 2023).
